Results published in US20250057968A1, “ANTI-DLL3 ANTIBODY AND PHARMACEUTICAL USE THEREOF, AND ANTIBODY-DRUG CONJUGATE CONTAINING ANTI-DLL3 ANTIBODY” (Jiangsu Hengrui Pharmaceuticals Co., Ltd., priority 2021, published 2025).

B1: Hu6 (antibody, human IgG1, kappa, V domains shown)
VH: EVQLVQSGSELKKPGASVKVSCKASGYTFTDYYMNWVRQAPGQGLEWMGIINPYSGVTIYNHKFKGRFALSVDKSSNTAYLQISSLKAEDTAVYYCARQDSLLDYAMDYWGQGTTVTVSS
VL: DIQMTQSPSSLSASVGDRVTITCHASQGISGNMGWLQQKPGKAPKGLIYHGANLEDGVPSRFSGSGSGADYTLTISSLQPEDFADYYCVQYAQFPYTFGGGTKVEIKR
notes: also called hAb6L4H12
B2: Hu100 (antibody, human IgG1, kappa, V domains shown)
VH: EVQLVESGGGLVKPGGSLRLSCAASGFTFSDSGMHWIRQAPGKGLEWVSYISSGSSTIHYADTVKGRFTISRDNAKNSLYLQMNSLRAEDTAVYYCASPLYYYGRSYNAVAYWGQGTTVTVSS
VL: DIQMTQSPSSLSASVGDRVTITCHASQNINVWLSWYQQKPGKVPKLLIYKASDLHTGVPSRFSGSGSGTDFTLTISSLQPEDVATYYCQQGQSYPLTFGGGTKVEIKR
notes: also called hAb100L1H1

Tests used:
[1] = molecular target: T1, mouse DLL3 (KACTUS, DLL-MM103) (mouse, UniProt O88516 33-490, limits assumed); assay: SPR (Biacore 8K), antibody captured on Protein A chip, 1:1 fit
T1 construct: bought antigen of the Biacore assay; construct not described
T1 sequence (looked up): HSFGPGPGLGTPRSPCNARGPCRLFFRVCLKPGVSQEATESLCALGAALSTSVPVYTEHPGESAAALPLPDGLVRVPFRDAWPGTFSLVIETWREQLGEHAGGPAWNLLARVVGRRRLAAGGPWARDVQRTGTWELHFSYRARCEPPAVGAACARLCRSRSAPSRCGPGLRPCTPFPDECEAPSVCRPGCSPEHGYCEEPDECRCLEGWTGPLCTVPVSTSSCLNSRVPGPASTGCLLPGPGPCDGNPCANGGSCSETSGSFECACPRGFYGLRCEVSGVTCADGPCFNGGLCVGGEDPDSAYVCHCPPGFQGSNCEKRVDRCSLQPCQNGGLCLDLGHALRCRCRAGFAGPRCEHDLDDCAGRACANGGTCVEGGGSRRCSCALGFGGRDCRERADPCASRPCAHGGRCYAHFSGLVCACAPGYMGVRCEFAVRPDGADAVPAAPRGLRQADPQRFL
Source text: Test antibodies were affinity-captured with a Protein A biosensor chip (Cat. #29127556, Cytiva) for 18 seconds, and then the antigens human DLL3 (ACRO, DLL3-H52H4), cynomolgus monkey DLL3 (KACTUS, DLL-RM103), and mouse DLL3 (KACTUS, DLL-MM103) were allowed to flow over the surface of the chip for 180 seconds, followed by 600 seconds of dissociation. Reaction signals were detected in real time using a Biacore 8K (Cytiva) instrument to obtain association and dissociation curves. After the dissociation in each experimental cycle, the biosensor chip was washed and regenerated with a 10 mM glycine-hydrochloric acid solution (pH 1.5) (Cat. #BR-1003-54, Cytiva). A 1:1 model was fit to the data. The results are shown in Table 12-1, Table 12-2, and Table 12-3.

[2] = molecular target: T2, Human DLL3 full-length protein on cells (human, UniProt Q9NYJ7 27-618); assay: FACS on DLL3/H82 cells
T2 construct: H1184 and DMS53 express DLL3 themselves; The cell line is named under assay; also called H1184 cells; DLL3/H82
T2 sequence: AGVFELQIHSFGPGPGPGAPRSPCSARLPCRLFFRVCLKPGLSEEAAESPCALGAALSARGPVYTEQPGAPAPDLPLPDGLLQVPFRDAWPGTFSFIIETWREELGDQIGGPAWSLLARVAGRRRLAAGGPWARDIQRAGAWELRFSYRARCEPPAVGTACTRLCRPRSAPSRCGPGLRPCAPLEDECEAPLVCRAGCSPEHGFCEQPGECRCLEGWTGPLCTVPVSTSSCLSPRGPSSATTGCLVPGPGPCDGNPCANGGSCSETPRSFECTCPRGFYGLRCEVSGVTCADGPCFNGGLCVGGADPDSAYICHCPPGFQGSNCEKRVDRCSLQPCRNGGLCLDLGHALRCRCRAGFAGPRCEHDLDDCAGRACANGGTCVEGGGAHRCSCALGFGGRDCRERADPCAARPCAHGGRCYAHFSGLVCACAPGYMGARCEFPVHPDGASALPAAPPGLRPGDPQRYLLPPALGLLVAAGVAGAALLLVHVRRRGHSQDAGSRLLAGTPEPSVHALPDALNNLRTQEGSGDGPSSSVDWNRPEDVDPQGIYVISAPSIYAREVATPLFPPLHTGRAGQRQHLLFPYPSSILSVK
Protocol: Cells of the DLL3-expressing small cell lung cancer cell lines H1184 (ATCC, Cat. No. CRL-5858), DLL3/H82, cynoDLL3/CHO-s, and RatDLL3/CHO-s were suspended at 1×10^6/mL in FACS buffer (1% BSA+pH 7.4 PBS), and the cell suspensions were added to a 96-well round-bottom plate (Corning, 3795) at 100 μL/well. The plate was centrifuged at 300 g for 5 min, and the supernatant was removed. Different concentrations of test antibodies were added at 100 μL/well. The plate was incubated in the dark in a refrigerator at 4° C. for 1 h. After 3 washes by centrifugation at 300 g, working concentrations of APC anti-human IgG Fc (BioLegend, 410712) or PE F(ab′)2-goat anti-human IgG (invitrogen, H10104) were added. The plate was incubated in the dark in a refrigerator at 4° C. for 40 min. After 3 washes by centrifugation at 300 g, the geometric mean fluorescence intensity was measured on an Invitrogen flow cytometer, and the EC50 values of the antibodies in binding to DLL3-expressing cells were calculated.

Row | Binder | Kd [1] | EC50 [2] | Emax [2]
1 | B1 | 6.52 nM | – | –
2 | B2 | – | 0.24 nM | 14300
